Source: paper PMC12027964, “Centrifugation-Based Purification Protocol Optimization Enhances Structural Preservation of Nucleopolyhedrovirus Budded Virion Envelopes” (Insects, 2025)

Target: the molecule itself
Experiment: cryo-EM structure; GP64 solubilised from purified BV particles with DDM/CHS, SEC fraction B in TN buffer (50 mM Tris-HCl pH 8, 150 mM NaCl) with 0.02% DDM and 0.002% CHS, about 1 mg/mL; single-particle reconstruction (7913 particles, 15 Å); prefusion GP64 model PDB 8YG6 fitted into the map

B1: GP64 envelope fusion protein of Autographa californica multiple nucleopolyhedrovirus (AcMNPV) (natural protein)
chain: AEHCNAQMKTGPYKIKNLDITPPKETLQKDVEITIVETDYNENVIIGYKGYYQAYAYNGGSLDPNTRVEETMKTLNVGKEDLLMWSIRQQCEVGEELIDRWGSDSDDCFRDNEGRGQWVKGKELVKRQNNNHFAHHTCNKSWRCGISTSKMYSRLECQDDTDECQVYILDAEGNPINVTVDTVLHRDGVSMILKQKSTFTTRQIKAACLLIKDDKNNPESVTREHCLIDNDIYDLSKNTWNCKFNRCIKRKVEHRVKKRPPTWRHNVRAKYTEGDTATKGDLMHIQEELMYENDLLKMNIELMHAHINKLNNMLHDLIVSVAKVDERLIGNLMNNSVSSTFLSDDTFLLMPCTNPPAHTSNCYNNSIYKEGRWVANTDSSQCIDFSNYKELAIDDDVEFWIPTIGNTTYHDSWKDASGWSFIAQQKSNLITTMENTKFGGVGTSLSDITSMAEGELAAKLTSFMFGHVVNFVIILIVILFLYCMIRNRNRQY
notes: Native viral protein, no tag; also called prefusion GP64; Frac B; source: purified from recombinant AcMNPV budded virions produced in Sf9 cells (1% DDM / 0.1% CHS extraction, Superdex 200 SEC)
  stoichiometry N: 3
